In patent US20070032640A1, “Cytokine receptor” (priority 2001, published 2007):
Residue numbers refer to the chain shown, from its start.

T1: human soluble interleukin 6 receptor α-chain (hsIL6Rα) and hsgp130 (Homo sapiens, UniProt P08887)
T1 construct: human soluble interleukin 6 receptor α-chain (hsIL6Rα)
T1 sequence (P08887 20-355 limits assumed): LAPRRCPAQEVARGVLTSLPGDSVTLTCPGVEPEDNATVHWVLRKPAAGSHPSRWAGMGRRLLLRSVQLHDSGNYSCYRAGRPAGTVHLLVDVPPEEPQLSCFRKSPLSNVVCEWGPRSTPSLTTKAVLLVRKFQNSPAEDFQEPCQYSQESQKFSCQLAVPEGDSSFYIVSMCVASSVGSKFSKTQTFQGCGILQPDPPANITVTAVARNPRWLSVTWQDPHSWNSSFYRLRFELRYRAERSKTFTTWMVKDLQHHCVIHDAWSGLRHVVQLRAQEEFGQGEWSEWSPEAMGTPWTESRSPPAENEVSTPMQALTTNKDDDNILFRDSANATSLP

T2: IL-6R (Homo sapiens, UniProt P08887)
T2 construct: endogenous in cells; host or cells: human myeloma U266 cells
T2 sequence (P08887 20-468): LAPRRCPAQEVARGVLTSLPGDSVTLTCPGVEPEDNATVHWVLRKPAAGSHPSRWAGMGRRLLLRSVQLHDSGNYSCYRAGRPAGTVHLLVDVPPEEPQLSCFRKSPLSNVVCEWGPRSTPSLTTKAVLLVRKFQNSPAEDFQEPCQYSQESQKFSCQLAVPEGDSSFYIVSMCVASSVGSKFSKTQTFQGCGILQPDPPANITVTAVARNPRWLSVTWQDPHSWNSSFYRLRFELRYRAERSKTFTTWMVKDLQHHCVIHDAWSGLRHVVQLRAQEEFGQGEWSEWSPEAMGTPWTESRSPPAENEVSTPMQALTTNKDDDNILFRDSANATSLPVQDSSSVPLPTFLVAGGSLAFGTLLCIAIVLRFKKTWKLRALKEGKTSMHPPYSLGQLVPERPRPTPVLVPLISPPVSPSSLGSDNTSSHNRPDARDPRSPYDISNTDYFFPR

B1: C192: IL-6R with C192 mutated to alanine (protein, UniProt P08887 20-468, looked up, variant C192A)
Interleukin-6 receptor …: T2 sequence (P08887 20-468) with C192A
B2: R231: IL-6R RL-SI double mutant at R231 and L232 (protein, UniProt P08887 20-468, looked up, variant R231S L232I)
Interleukin-6 receptor …: T2 sequence (P08887 20-468) with R231S, L232I
B3: V259: IL-6R V-N mutant at V259 (protein, UniProt P08887 20-468, looked up, variant V259N)
Interleukin-6 receptor …: T2 sequence (P08887 20-468) with V259N
B4: W214: IL-6R W-Q mutant at W214 (protein, UniProt P08887 20-468, looked up, variant W214Q)
Interleukin-6 receptor …: T2 sequence (P08887 20-468) with W214Q
B5: P162: IL-6R PE-LQ double mutant at P162 and E163, loop L3 (protein, UniProt P08887 20-468, looked up, variant P162L E163Q)
Interleukin-6 receptor …: T2 sequence (P08887 20-468) with P162L, E163Q
B6: F-Y mutant: IL-6R F-Y mutant at F168 (protein, UniProt P08887 20-468, looked up, variant F168Y)
Interleukin-6 receptor …: T2 sequence (P08887 20-468) with F168Y
B7: F134: IL-6R F-L mutation at F134 (protein, UniProt P08887 20-468, looked up, variant F134L)
Interleukin-6 receptor …: T2 sequence (P08887 20-468) with F134L
B8: D262: IL-6R D-G mutant at D262 (protein, UniProt P08887 20-468, looked up, variant D262G)
Interleukin-6 receptor …: T2 sequence (P08887 20-468) with D262G
B9: E278: IL-6R EF-AI double mutant at E278 and F279 (protein, UniProt P08887 20-468, looked up, variant E278A F279I)
Interleukin-6 receptor …: T2 sequence (P08887 20-468) with E278A, F279I
B10: I260: IL-6R I-D mutation at I260 (protein, UniProt P08887 20-468, looked up, variant I260D)
Interleukin-6 receptor …: T2 sequence (P08887 20-468) with I260D
B11: H261: IL-6R H-I mutation at H261 (protein, UniProt P08887 20-468, looked up, variant H261I)
Interleukin-6 receptor …: T2 sequence (P08887 20-468) with H261I

Columns and labels:
[1] = target: T3, soluble, recombinant IGF-1 receptor (Homo sapiens, UniProt P08069); assay: Solid phase receptor binding assay, IGF-1R/IGF-1 system (specificity); conditions: Eu-IGF-1 binding to IGF-1 receptor, FIG. 7B
T3 construct: soluble, recombinant IGF-1 receptor
Protocol: (§1) Solid phase receptor binding assays. Ten compounds selected from Table 3 (NCI compounds) were tested for their ability to modulate the binding of europium-labelled IL-6 to soluble, recombinant IL-6 receptor (A) or the binding of europium-labelled IGF-1 to soluble, recombinant IGF-1 receptor (B) in a microplate-based format. Binding to the receptor is measured by time resolved fluorescence (TRF) as a % of control.
In order to examine specificity, the compounds were also assayed against the IGF receptor system in an identical manner.

[2] = target: T1, human soluble interleukin 6 receptor α-chain (hsIL6Rα) and hsgp130; assay: High capacity screening assay: binding of europium-labelled human IL6 to hsIL6Rα and immobilised hsgp130; conditions: Eu-IL-6 binding by time resolved fluorescence as % of control, FIG. 7A
Excerpt: Compounds designed according to the methods of the present invention may be assessed by a number of in vitro and in vivo assays of hormone function. For example, the identification of IL-6 receptor antagonists of may be undertaken using a solid-phase receptor binding assay. Potential antagonists may be screened for their ability to inhibit the binding of europium-labelled IL-6 receptor ligands to soluble, recombinant IL-6 receptor in a microplate-based format. Europium is a lanthanide fluorophore, the presence of which can be measured using time-resolved fluorometry. The sensitivity of this assay matches that achieved by radioisotopes, measurement is rapid and is performed in a microplate format to allow high-sample throughput, and the approach is gaining wide acceptance as the method of choice in the development of screens for receptor agonists/antagonists (see Apell et al., J. Biomolec. Screening 3:19-27, 1998: Inglese et al., Biochemistry 37:2372-2377, 1998).
as §1
Ten of the compounds listed in Table 3 were tested for their ability to modulate binding of IL-6 to IL-6R/gp130. The high throughput screening assay used for this purpose detects the binding of europium-labelled human IL6 (Eu-hIL6) to human soluble interleukin 6 receptor α-chain (hsIL6Rα) and hsgp130 immobilised on the surface of wells of a microtitre plate. The protocol followed was essentially as follows: […]
The fractions were assayed for europium by diluting 10,000-fold in 200 μL of DELFIA enhancement solution and measuring europium fluorescence. […] The concentration of Eu-IL6 was determined from the absorbance at 280 nm (0.5 AU/mg/mL) and the labelling stoichiometry based on a molecular mass of 21,300. […]

IL-6R = target: T2, IL-6R; conditions: human myeloma U266 cells, low-affinity binding; cited from earlier work
IL-6 = conditions: cited from earlier work; for Binding: IL-6 binding of IL-6R mutant, relative to wild type
gp130 signalling = conditions: cited from earlier work; for Signalling: gp130 signalling of IL-6R mutant, relative to wild type

T3 sequence (P08069 31-736): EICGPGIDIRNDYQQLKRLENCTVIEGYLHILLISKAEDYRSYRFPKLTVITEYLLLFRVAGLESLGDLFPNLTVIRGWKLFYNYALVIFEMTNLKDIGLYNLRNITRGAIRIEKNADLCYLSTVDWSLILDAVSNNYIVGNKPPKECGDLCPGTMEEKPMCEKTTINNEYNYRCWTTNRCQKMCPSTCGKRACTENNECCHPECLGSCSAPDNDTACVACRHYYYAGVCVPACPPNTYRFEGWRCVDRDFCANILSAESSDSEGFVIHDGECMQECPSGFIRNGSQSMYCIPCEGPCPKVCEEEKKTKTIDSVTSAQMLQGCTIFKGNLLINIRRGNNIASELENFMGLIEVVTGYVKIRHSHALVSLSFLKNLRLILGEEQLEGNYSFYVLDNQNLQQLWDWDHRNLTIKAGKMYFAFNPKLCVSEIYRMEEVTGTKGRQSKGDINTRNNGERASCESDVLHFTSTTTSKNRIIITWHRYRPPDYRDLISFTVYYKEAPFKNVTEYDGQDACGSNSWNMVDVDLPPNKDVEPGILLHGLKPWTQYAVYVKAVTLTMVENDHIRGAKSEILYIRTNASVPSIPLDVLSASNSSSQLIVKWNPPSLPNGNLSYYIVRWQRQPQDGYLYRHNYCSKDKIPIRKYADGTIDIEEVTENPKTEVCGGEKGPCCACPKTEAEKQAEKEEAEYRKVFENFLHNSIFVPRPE
T3 sequence (P08069 741-935): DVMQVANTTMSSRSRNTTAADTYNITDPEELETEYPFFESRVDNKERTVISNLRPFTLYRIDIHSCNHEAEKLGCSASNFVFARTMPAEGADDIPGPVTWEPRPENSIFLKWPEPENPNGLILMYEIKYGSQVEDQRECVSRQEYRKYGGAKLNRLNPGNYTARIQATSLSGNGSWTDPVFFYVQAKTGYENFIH

Molecule | Binding (IL-6) [%] | Signalling (gp130 signalling) | also measured
O=C(C[n+]1ccc2ccccc2c1)c1ccc(-c2ccccc2)cc1 [compound 17791, 1-[1,1′-biphenyl]-4-yl-2-(2^5-isoquinolin-2-yl)ethanone] |  |  | specificity against the IGF-1R/IGF-1 system [1]: specifically; effect on IL-6 binding to IL-6R/gp130 (antagonist or agonist) [2]: agonists
O=C(O)c1ccccc1C(=O)Nc1cc2c(cc1Br)-c1ccccc1C2=O [compound 56681, 2-(((3-bromo-9-oxo-9H-fluoren-2-yl)amino)carbonyl)benzoic acid] |  |  | specificity against the IGF-1R/IGF-1 system [1]: specifically; effect on IL-6 binding to IL-6R/gp130 (antagonist or agonist) [2]: agonists
IL-6: multifunctional cytokine, natural ligand of the IL-6 receptor |  |  | Kd (IL-6R): ~1 nM
Nc1c(C(=O)Nc2ccc3c(c2)C(=O)c2ccccc2C3=O)ccc2c1C(=O)c1ccccc1C2=O [compound 39914, 1-amino-N-(9,10-dioxo-9,10-dihydro-2-anthracenyl)-9,10-dioxo-9,10-dihydro-2-anthracenecarboxamide] |  |  | specificity against the IGF-1R/IGF-1 system [1]: specifically; effect on IL-6 binding to IL-6R/gp130 (antagonist or agonist) [2]: antagonist
B1 |  |  | binding of IL-6 to IL-6R (in words) (IL-6; mutated to alanine): slightly increased; signalling (in words) (gp130 signalling; mutated to alanine): slightly increased
B2 | 0 |  | 
B3 | 40 | 140% | 
B4 | 70 | >150% | 
B5 | <10 |  | 
B6 |  | mutant signals at 50% | 
B7 | >100 | 70% | 
B8 | 30 | <10% | 
B9 | 0 |  | 
B10 | 0 |  | 
B11 | 115 | 10% | 
